Reference: the supplement of paper PMC9112550, “Optimization of the antimicrobial peptide Bac7 by deep mutational scanning” (BMC Biology, 2022)

The sequences below were run on Escherichia coli TOP10 (assay: shrunken log2 fold change of peptide-encoding DNA abundance (4.5 h post-induction vs induction); higher = less antimicrobial activity (less host growth inhibition)). Conditions: time post-induction: 4.5 h; library: site-saturation at positions 5, 18, 19, 20.
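Further: peptides expressed intracellularly from a pBAD plasmid library in pooled LB shake-flask culture, induced with 0.3% L-arabinose, DNA abundance read by NGS, three biological replicates, DESeq2 with apeglm shrinkage.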

| Sequence | shrunken log2 fold change |
| --- | --- |
| RRIRFRPPRLPRPRPRPEDLPRP | 0.143 |
| RRIRDRPPRLPRPRPRPMTKPRP | -0.0341 |
| RRIRHRPPRLPRPRPRPRPIPRP | 0.117 |
| RRIRRRPPRLPRPRPRPLDMPRP | -0.114 |
| RRIRFRPPRLPRPRPRPLNGPRP | 0.073 |
| RRIRIRPPRLPRPRPRPTHSPRP | -0.469 |
| RRIRRRPPRLPRPRPRPQACPRP | 0.0222 |
| RRIRERPPRLPRPRPRPPDCPRP | 0.0792 |
| RRIRIRPPRLPRPRPRPGGMPRP | -0.0648 |
| RRIRCRPPRLPRPRPRPLSSPRP | -0.173 |
| RRIRPRPPRLPRPRPRPNEAPRP | -0.151 |
| RRIRLRPPRLPRPRPRPALIPRP | -0.00882 |
| RRIRFRPPRLPRPRPRPGKYPRP | -0.586 |
| RRIRRRPPRLPRPRPRPPTNPRP | 0.643 |
| RRIRYRPPRLPRPRPRPAGIPRP | -0.359 |
| RRIRFRPPRLPRPRPRPQGMPRP | -0.0535 |
| RRIRIRPPRLPRPRPRPLEKPRP | -0.0295 |
| RRIRGRPPRLPRPRPRPHCFPRP | 0.233 |
| RRIRPRPPRLPRPRPRPQNPPRP | -0.216 |
| RRIRDRPPRLPRPRPRPGPNPRP | 0.0518 |
| RRIRCRPPRLPRPRPRPTPLPRP | 0.522 |
| RRIRIRPPRLPRPRPRPSYMPRP | -1.53 |
| RRIRARPPRLPRPRPRPPMRPRP | 1.26 |
| RRIRHRPPRLPRPRPRPNMSPRP | -0.245 |
| RRIRDRPPRLPRPRPRPHNNPRP | -0.604 |

| Sequence | shrunken log2 fold change |
| --- | --- |
| RRIRRRPPRLPRPRPRPGHWPRP | 0.0797 |
| RRIRMRPPRLPRPRPRPMFIPRP | -0.403 |
| RRIRPRPPRLPRPRPRPYDYPRP | -0.355 |
| RRIRARPPRLPRPRPRPEIVPRP | 0.553 |
| RRIRHRPPRLPRPRPRPIMYPRP | -0.169 |
| RRIRGRPPRLPRPRPRPIHRPRP | 0.0525 |
| RRIRKRPPRLPRPRPRPCWAPRP | 0.114 |
| RRIRWRPPRLPRPRPRPSFMPRP | -0.304 |
| RRIRVRPPRLPRPRPRPKLSPRP | -0.0136 |
| RRIRIRPPRLPRPRPRPVNDPRP | -0.00973 |
| RRIRYRPPRLPRPRPRPKHQPRP | -0.441 |
| RRIRTRPPRLPRPRPRPISQPRP | -0.0474 |
| RRIRPRPPRLPRPRPRPEQPPRP | 0.184 |
| RRIRIRPPRLPRPRPRPTEPPRP | 0.0374 |
| RRIRIRPPRLPRPRPRPNGKPRP | -0.229 |
| RRIRPRPPRLPRPRPRPLKIPRP | -0.169 |
| RRIRTRPPRLPRPRPRPAYSPRP | 0.0215 |
| RRIRIRPPRLPRPRPRPHHAPRP | 0.0597 |
| RRIRARPPRLPRPRPRPIPCPRP | 0.0669 |
| RRIRERPPRLPRPRPRPIHAPRP | 0.0259 |
| RRIRMRPPRLPRPRPRPINFPRP | -0.0648 |
| RRIRDRPPRLPRPRPRPEWVPRP | -0.0272 |
| RRIRSRPPRLPRPRPRPHISPRP | -0.035 |
| RRIRIRPPRLPRPRPRPGKMPRP | -0.329 |
| RRIRGRPPRLPRPRPRPSGGPRP | 0.391 |

| Sequence | shrunken log2 fold change |
| --- | --- |
| RRIRQRPPRLPRPRPRPINDPRP | -0.293 |
| RRIRYRPPRLPRPRPRPPTGPRP | 0.0896 |
| RRIRNRPPRLPRPRPRPDGCPRP | 0.136 |
| RRIRNRPPRLPRPRPRPHWCPRP | 0.0251 |
| RRIRQRPPRLPRPRPRPFNCPRP | -0.0275 |
| RRIRRRPPRLPRPRPRPQFYPRP | -0.41 |
| RRIRPRPPRLPRPRPRPGAAPRP | 0.552 |
| RRIRVRPPRLPRPRPRPTFLPRP | -0.0973 |
| RRIRKRPPRLPRPRPRPSEWPRP | 0.212 |
| RRIRGRPPRLPRPRPRPCSSPRP | -0.129 |
| RRIRNRPPRLPRPRPRPSGAPRP | -0.0216 |
| RRIRIRPPRLPRPRPRPKSEPRP | -0.329 |
| RRIRFRPPRLPRPRPRPHDIPRP | -0.0788 |
| RRIRIRPPRLPRPRPRPVIYPRP | -0.695 |
| RRIRSRPPRLPRPRPRPPVTPRP | -0.0798 |
| RRIRGRPPRLPRPRPRPSYPPRP | -0.215 |
| RRIRERPPRLPRPRPRPGHAPRP | 0.304 |
| RRIRQRPPRLPRPRPRPIQHPRP | 0.14 |
| RRIRTRPPRLPRPRPRPMWSPRP | -0.0629 |
| RRIRERPPRLPRPRPRPHVLPRP | -0.202 |
| RRIRFRPPRLPRPRPRPPWLPRP | 0.509 |
| RRIRNRPPRLPRPRPRPQACPRP | -0.0265 |
| RRIRGRPPRLPRPRPRPKHTPRP | 0.743 |
| RRIRYRPPRLPRPRPRPWNHPRP | -0.00776 |
| RRIRGRPPRLPRPRPRPARLPRP | 0.678 |
